This note sets out measurements from paper PMC6483365.

The test system of data set [1] is hemagglutinin on whole virus (Influenza A virus A/tern/South Africa/1/1961 (H5N3)). Put plainly: ELAA. The settings on record: […], pH 7.4), 25 C, […], room temperature, 1 h.
Data set [2] has as its system hemagglutinin on whole virus (Influenza A virus A/England/42/1972 (H3N2)). As to the kind of experiment: ELAA. The settings on record: […], pH 7.4), 25 C, […], room temperature, 1 h.
The target of data set [3] is hemagglutinin on whole virus (Influenza A virus A/Puerto-Rico/8/1934 (H1N1)) (UniProt P03452). As to the kind of experiment: ELAA.
For data set [4], the target named is hemagglutinin on whole virus (Influenza A virus A/Vietnam/1203/2004-PR8/CDC-R (H5N1)) (UniProt Q6DQ33). As to the kind of experiment: ELAA. To be noted: […], pH 7.4), 25 C, […], room temperature, 1 h.
In data set [5] the target is hemagglutinin on whole virus (Influenza A virus A/New Caledonia/20/1999 (H1N1)) (UniProt Q6WG00). Put plainly: ELAA. To be noted: […], pH 7.4), 25 C, […], room temperature, 1 h.
For data set [6], the system named is hemagglutinin on whole virus (Influenza A virus A/Primorie/3631/2002 (H9N2)). As to the kind of experiment: ELAA. The settings on record: […], pH 7.4), 25 C, […], room temperature, 1 h.
The subject of data set [7] is hemagglutinin on whole virus (Influenza A virus A/mallard/Sweden/91/2002 (H7N9)). Put plainly: ELAA. The settings on record: […], pH 7.4), 25 C, […], room temperature, 1 h.
Data set [8] deals with hemagglutinin on whole virus (Influenza A virus A/Aichi/2/1968 (H3N2)) (UniProt P03437). As to the kind of experiment: ELAA.
In data set [9] the test system is hemagglutinin on whole virus (Influenza A virus A/duck/Primorie/3691/2002 (H12N2)). Put plainly: ELAA. The settings on record: […], pH 7.4), 25 C, […], room temperature, 1 h.
The subject of data set [10] is hemagglutinin on whole virus (Influenza A virus A/tern/South Africa/1/1961 (H5N3)). As to the kind of experiment: SERS sandwich. The settings on record: […], pH 7.4), 25 C, […], room temperature, 1 h.
The subject of data set [11] is hemagglutinin on whole virus (Influenza A virus A/Mississippi/1/1985 (H3N2)). Put plainly: SERS sandwich. To be noted: […], pH 7.4), 25 C, […], room temperature, 1 h.
Data set [12] relates to hemagglutinin on whole virus (Influenza A virus A/England/42/1972 (H3N2)). As to the kind of experiment: SERS sandwich. The settings on record: […], pH 7.4), 25 C, […], room temperature, 1 h.
The target in data set [13] is hemagglutinin on whole virus (Influenza A virus A/Vietnam/1203/2004-PR8/CDC-R (H5N1)) (UniProt Q6DQ33). Put plainly: SERS sandwich. To be noted: […], pH 7.4), 25 C, […], room temperature, 1 h.
Data set [14] relates to hemagglutinin on whole virus (Influenza A virus A/Buryatia/652/1988 (H3N8)). As to the kind of experiment: SERS sandwich. The settings on record: […], pH 7.4), 25 C, […], room temperature, 1 h.
The target of data set [15] is hemagglutinin on whole virus (Influenza A virus A/New Caledonia/20/1999 (H1N1)) (UniProt Q6WG00). Put plainly: SERS sandwich. The settings on record: […], pH 7.4), 25 C, […], room temperature, 1 h.
The test system of data set [16] is hemagglutinin on whole virus (Influenza A virus A/Primorie/3/1982 (H9N2)). Put plainly: SERS sandwich. To be noted: […], pH 7.4), 25 C, […], room temperature, 1 h.
The subject of data set [17] is hemagglutinin on whole virus (Influenza A virus A/Buryatia/2408/2001 (H4N6)). Put plainly: SERS sandwich. To be noted: […], pH 7.4), 25 C, […], room temperature, 1 h.
Data set [18] addresses hemagglutinin on whole virus (Influenza A virus A/Aichi/2/1968 (H3N2)) (UniProt P03437). As to the kind of experiment: SERS sandwich.
Data set [19] concerns hemagglutinin on whole virus (Influenza A virus A/duck/Moscow/4182/2010 (H5N3)). Put plainly: SERS sandwich. The settings on record: […], pH 7.4), 25 C, […], room temperature, 1 h.
Data set [20] relates to hemagglutinin on whole virus (Influenza A virus A/duck/Primorie/3691/2002 (H12N2)). Put plainly: SERS sandwich. To be noted: […], pH 7.4), 25 C, […], room temperature, 1 h.
The test system of data set [21] is recombinant hemagglutinin H3 (Influenza A virus (H3 subtype, strain not stated)). As to the kind of experiment: SPR. To be noted: […], pH 7.4), 25 C, room temperature, 1 h.
The test system of data set [22] is recombinant hemagglutinin H1 (Influenza A virus (H1 subtype, strain not stated)). As to the kind of experiment: SPR. To be noted: […], pH 7.4), 25 C, room temperature, 1 h.
For data set [23], the system named is recombinant hemagglutinin H7 (Influenza A virus (H7 subtype, strain not stated)). As to the kind of experiment: SPR. To be noted: […], pH 7.4), 25 C, room temperature, 1 h.
In data set [24] the test system is recombinant hemagglutinin H5 (Influenza A virus (H5 subtype, strain not stated)). As to the kind of experiment: SPR. The settings on record: […], pH 7.4), 25 C, room temperature, 1 h.
For data set [25], the system named is recombinant hemagglutinin H9 (Influenza A virus (H9 subtype, strain not stated)). As to the kind of experiment: SPR. The settings on record: […], pH 7.4), 25 C, room temperature, 1 h.

Sequence of hemagglutinin on whole virus (Influenza A virus A/Puerto-Rico/8/1934 (H1N1)) (P03452 whole entry): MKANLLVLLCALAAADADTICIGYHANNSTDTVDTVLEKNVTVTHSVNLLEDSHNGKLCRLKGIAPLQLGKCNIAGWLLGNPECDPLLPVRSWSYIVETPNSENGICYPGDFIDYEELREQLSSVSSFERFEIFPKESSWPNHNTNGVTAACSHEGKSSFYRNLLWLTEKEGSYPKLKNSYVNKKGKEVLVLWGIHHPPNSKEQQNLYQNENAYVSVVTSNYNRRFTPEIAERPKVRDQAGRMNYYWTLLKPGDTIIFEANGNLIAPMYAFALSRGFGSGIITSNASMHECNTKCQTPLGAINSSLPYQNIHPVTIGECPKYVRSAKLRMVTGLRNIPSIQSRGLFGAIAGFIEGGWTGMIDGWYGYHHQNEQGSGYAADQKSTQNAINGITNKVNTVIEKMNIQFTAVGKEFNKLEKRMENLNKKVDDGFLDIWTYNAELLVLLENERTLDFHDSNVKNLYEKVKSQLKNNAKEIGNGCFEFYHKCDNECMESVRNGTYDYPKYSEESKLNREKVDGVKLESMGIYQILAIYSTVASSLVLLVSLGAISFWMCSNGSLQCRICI

Take “TTGGGGTTATTTTGGGAGGGCGGGGGTT [RHA0385-Biotin]”: the Kd (in general, the free concentration of one partner at which half of the binding sites on the other are occupied at equilibrium, for simple one-to-one binding) in data set [1] amounted to 200 nM; in data set [2], 40 nM; in data set [3], 13 nM; in [4], 34 nM; in data set [5], 42 nM; in data set [6] it was 16 nM. The Kd in [7] is 13 nM; in data set [8] it was 17 nM; in data set [9], above 200 nM.

For “TTGGGGTTATTTTGGGAGGGCGGGGGTT [RHA0385-Cy3]”, the binding signal (relative SERS signal) in [10] worked out at 6.5; in data set [11], 4.3; in [12], 3; in [13], 4.8; in data set [14], 2.4; in [15], 1.7. The binding signal (relative SERS signal) was determined as 2.4 in data set [16]; 6.9 in data set [17]; 4.1 in data set [18]; 2.9 in data set [19]; 5 in data set [20].

As to TTGGGGTTATTTTGGGAGGGCGGGGGTT [RHA0385], the Kd is 12 nM in data set [21]; 7 nM in [22]; 12 nM in data set [23]; 13 nM in data set [24]; 14 nM in data set [25].
